Test: soluble on expression in E. coli; label from the status in PepcDB or PDB records

Sequence	soluble on expression in E. coli
MRHSLWLLLAAILSLPAQAGTECRDIHDRDLRRMCNALERGDSGDCGDIDSRDMRRYCGALLAPGQRYDCDDIRDGDTRRQCRAIVRGDRKRCDDIDSRDMRRQCRAVVSRAPWQCDGIDDRDMRRICRVILSR	soluble
MKNIFGNKNTKRSKNKDGKALASTASKDVADPPKQGGTKGSKKPKPSRGNDEKGREPETSAQSKKAKKGKPKRDSKAATPALSPGSREMLSDHKKQTVEDDPPLPIATSVAGTVTTTGMPALLPAENATQPLKEVVNSGKKSKGAPNSATATPVSHKSTITEGADKWVGEDVAKNWMDSIDLAEVKKEFEKLQSMKVDVEKECKTWKANSKYNQSEDFPALDSNLLKVEKDYVNISRVEIPLGRNIYIGQVPVKDTEETFWKAVFDKRIVSIDVIVGDEPIEFFPKKAEDYKNYGQMWINNRKVEYVSDDVFRFSIEVLPHGCSNSIICNVTVISNWKVDSVPVKQAIAIKEAFGLNSYLLKAPADDNAMINSQHGAGRAGYFLALAVAVHTIDTKVAEPCIVDIVKSIRSQRPRAVDSFCQYCSLYISLLYFIKKKVTKPAEGDKKSTPTNKYLHKKSVEMTKQFTNILLEANQPSVMGPQ	not soluble
MRGSHHHHHHGSVTTKRYTLPPLPYAYNALEPYISAEIMQLHHQKHHQGYVNGANAALEKLEKFRKGEAQIDIRAVLRDLSFHLNGHILHSIFWPNMAPPGKGGGKPGGKIADLINKFFGSFEKFKEEFSQAAKNVEGVGWAILVYEPLEEQLLILQIEKHNLMHAADAQVLLALDVWEHAYYLQYKNDRGSYVDNWWNVVNWDDVERRLQKALNGQIALKL	soluble
MGSDKIHHHHHHMLSDITVRYKLNNSIKDSRFETEHLAKYHLSFQVNFELFRICIVDGDSNRCLFLEDYTLADIYTTNDLLEQLDILFEDHILIKAGFWKSITVGFKNTQFSLIPEALFEKDYLKEYLTLNTTLDREPDEEYHFYKQRQTEAVNVFATNQRLTSWFNKTYPLKQVRYVHHTASMIEGIMLQKDKNAAEKSVFIQVEQYFLTIIVKQGKKLIFCNSFTFNTSEDFVYFILFVFDQLELNPEKCPVVVFGEITHDSESFSKLYKYIRHLTFGSKPEFVRFGYQFDEVFDHRYFDLYNMHLCQG	not soluble
MKYVASFSGGKDSAAMLLLILEKRLLLDEIVFIDTGLEFKEIYDIIDDFEKRINFKITRIKAEKTFEEYFYTVNKQGKRKGQIWGFPYTLGAWCNSRLKLAPANKYFNSIGEHKRYIGIAFDEPSRYRRLEKNCIAPLYEAKMTEKDCLKYLEKKGFYYDIHHRFKRTGCY	not soluble
MTDFFRFPNTPHLLWLGQGQPRDDKILSDAEIAALLQDEVLIEEKLDGANLGISLDEHGELRAQNRGQYLPQPFSGQFSRLNSWLGQHGEILKHTLTPEMILFGEWCAARHSLDYNKLPDWFLLFDVYDREAGKFWSVERRNQLAQKLNITTVPLLKRTKITCNQLVQLLDDAQSRYRSGKVEGIVIRCDSPLWCESRAKLVNREFVQAIEDHWRSRSIEWNLVHAGSVKRS	not soluble
MANGKSKNTKKDGVDKKKTSKTKKKSNLSISKSQTSVDMNEKDKSKEAKEAKELKEKKAKEEAEKKVVATPKKDASKDQAKKEEDPNKQNEPSGMDVLVKEDGKKTKMDDGYEDFGPGAGAAQ	not soluble
MTNTGETKVIESHGTIKKIDSLSTMPYCGVETDENAVVEEKITLESGKSWSPKHYELLHERIERLIDEKQQFFSLEFFPPRFVNGVPNFLERVERLSEGGSVFVDMTWHMGSDPANVDKVTSSSSIAASMLDYCGVDTMLHMTCVQYNKADTLKHLEQAKAMGLRSILALRGDLPPGTELEDTHQFRALDMIRWIREEYGNYFSIGCAGYPLGHPQAPSYKADLMYLKAKCDAGANFVITQLFFEAETFEKFVRDCREIGITQPIIPGIMPIMGYESIKRIAKLSQLEIPQHILDDLEPIKHDDDAVQKYGTERCIEMCRRLLDNGTAPSIHLYTMNREGSIREILKSLGLWKLEGDRVFPWKNRSQHPIRCLESVRPIYWSFRPRSYITRTRDWDQFPNGRWGNSSSPAFGDVSSYYLSNLTTVRNADDRLAMFGANIESFEDVKRVFINYITQAPNADGVKVTVLPWTEAETGVQPETSLISEQLVWCNENGILTVNSQPSVNGAPSTDPLVGWGKPGGYCYQKAYLECFMTAELSDKLIQIIEREFPVRVNYHAINKDSTFDKTNSEETTPIAVTWGVFPGSEIAQPTVVDPLSFRAWRDEAYQMWMAQWGDFYPKESKSYGVIKAVHDEFRLVTLVDNDFQKPSVLFDVLQKALDELKK	not soluble
MMMMRAFIAENVRGIYAFDEDGKLVGKRYFTDKPEKILDGLLKGELVKDLEEFLNELREKGYDEFIFEHPELSRKAKELGFNATTEFPNLAGERLRSNPEEFLGENWFDDYYNVGVALTRMRIQEQSGARDKMVIQAIEALDDVDKVINLLVSRLREWYSLHFPELDEILPRHPQYVAFVKAIGHRDNVDEEKLRELGLSDEKIKKIIEAKEKTMGAWMDETDIAIVQHFAEEIDRLYKLRKELEDYIDKAMDDVAPNLKALVGAKLGARLISLAGGLKELAMLPSSTIQVLGAEKALFRHLRTGAKPPKHGVIYQYPAINRSPWWQRGKIARALAGKLAIAARVDYFSGEYIAEELKKELEARIKEIKEKYPRPPKRRKEERKGRKPWKEKKKKKKKKKGGRR	soluble
MNTINRNYYPVSGIPAQDAPAQTDQLPPQGQGIKPGHNSNLIDFGLTQQANGPHSSLNTLGSRVQPTDTNTSSNMPGGNGEQVLNKLVQAIRNILNNLLSLLEGNLHNGSGPAQPQRDQTPTLAQSPSSASPSSSPPSTPQGNAEKPFVVQNDHPSEKPVSLQKNTEPTSAAPSQTAPRTTERSSATPDKTPARPDAVNPAVVHDLALPKTSTDTTAKPDNTVNAAKTATPAAHGQGADMSGIMGFAKEANTTGGNGGEVVTVNTVADLKKYMEDDKARTVKLGANLSADSKVTINFGANKTLLGTDKGNSLHNIYLASGKTASNDIFQNLNFDHDSRYRENGDMQMFISSGQKYWIDHNTYSGTKDQNAKGLDKLLYVGGTADNVSLTNSKFQNNEYGVILGQPDDSAQAKAEYKGYPRMTIANNVFSNLDVRAPGLMRHGQFDVLNNSIDNFHLGFTATGDATILSQANYFAKGVDVSDKASNSGVLDDYGDAHFKDIGSNVSFTQKSAVTAWTPSYQRDIKTAEAARAYDQANAGAKTVS	not soluble
MGSSHHHHHHSSGLVPRGSHMHSVVQSVTDRIIARSKASREAYLAALNDARNHGVHRSSLSCGNLAHGFAACNPDDKNALRQLTKANIGIITAFNDMLSAHQPYETYPDLLKKACQEVGSVAQVAGGVPAMCDGVTQGQPGMELSLLSREVIAMATAVGLSHNMFDGALLLGICDKIVPGLLIGALSFGHLPMLFVPAGPMKSGIPNKEKARIRQQFAQGKVDRAQLLEAEAQSYHSAGTCTFYGTANSNQLMLEVMGLQLPGSSFVNPDDPLREALNKMAAKQVCRLTELGTQYSPIGEVVNEKSIVNGIVALLATGGSTNLTMHIVAAARAAGIIVNWDDFSELSDAVPLLARVYPNGHADINHFHAAGGMAFLIKELLDAGLLHEDVNTVAGYGLRRYTQEPKLLDGELRWVDGPTVSLDTEVLTSVATPFQNNGGLKLLKGNLGRAVIKVSAVQPQHRVVEAPAVVIDDQNKLDALFKSGALDRDCVVVVKGQGPKANGMPELHKLTPLLGSLQDKGFKVALMTDGRMSGASGKVPAAIHLTPEAIDGGLIAKVQDGDLIRVDALTGELSLLVSDTELATRTATEIDLRHSRYGMGRELFGVLRSNLSSPETGARSTSAIDELY	soluble
MGSSGMGVDANGKPIKRQPTTNNNNKKAGNNSNNQKKGNNQNNKNNKNQNGGNRNQNRQHHQPPMMQMVPPFGPMGPGGPGGPGFMGPPNGNMNFFNGQNRRNGSGKNNGNRNGAPPSGYNGPSANNVGQGAIGNNMNGAQPFAGPEPSMEVPGFGKNSNIHELFGKMIWRKMEQINDAALVDQLQNRIMNLIHDALASQNDKQQQQQQQQHQQGFNQQRGMPFGGPGNQNGPFGNNAGFQRF	not soluble
SMRYTVSNLSMQTHAARFKTFFNWPSSVLVNPEQLASAGFYYVGNSDDVKCFCCDGGLRCWESGDDPWVQHAKWFPRCEYLIRIKGQEFIRQVQAS	soluble
MGRSPCFFKSFKGKLHKDRSPDPSTLASPHPSTEARRPVEAGSAEWTWGWMKRLPPASLSPGIAMSCYSGDSMLQKYKVKNAYRLHWQGREEPGASTFASLVFQ	soluble
